Data from US20240075093A1 (VIRGINIA TECH INTELLECTUAL PROPERTIES, published 2024).

Biological target: p110β (isolated PI3K protein subunit, cell-free kinase ELISA) (UniProt P42338 1-1070, limits assumed)
Test: cell-based or functional assay

Sequence of p110β (isolated PI3K protein subunit, cell-free kinase ELISA) (P42338 whole entry): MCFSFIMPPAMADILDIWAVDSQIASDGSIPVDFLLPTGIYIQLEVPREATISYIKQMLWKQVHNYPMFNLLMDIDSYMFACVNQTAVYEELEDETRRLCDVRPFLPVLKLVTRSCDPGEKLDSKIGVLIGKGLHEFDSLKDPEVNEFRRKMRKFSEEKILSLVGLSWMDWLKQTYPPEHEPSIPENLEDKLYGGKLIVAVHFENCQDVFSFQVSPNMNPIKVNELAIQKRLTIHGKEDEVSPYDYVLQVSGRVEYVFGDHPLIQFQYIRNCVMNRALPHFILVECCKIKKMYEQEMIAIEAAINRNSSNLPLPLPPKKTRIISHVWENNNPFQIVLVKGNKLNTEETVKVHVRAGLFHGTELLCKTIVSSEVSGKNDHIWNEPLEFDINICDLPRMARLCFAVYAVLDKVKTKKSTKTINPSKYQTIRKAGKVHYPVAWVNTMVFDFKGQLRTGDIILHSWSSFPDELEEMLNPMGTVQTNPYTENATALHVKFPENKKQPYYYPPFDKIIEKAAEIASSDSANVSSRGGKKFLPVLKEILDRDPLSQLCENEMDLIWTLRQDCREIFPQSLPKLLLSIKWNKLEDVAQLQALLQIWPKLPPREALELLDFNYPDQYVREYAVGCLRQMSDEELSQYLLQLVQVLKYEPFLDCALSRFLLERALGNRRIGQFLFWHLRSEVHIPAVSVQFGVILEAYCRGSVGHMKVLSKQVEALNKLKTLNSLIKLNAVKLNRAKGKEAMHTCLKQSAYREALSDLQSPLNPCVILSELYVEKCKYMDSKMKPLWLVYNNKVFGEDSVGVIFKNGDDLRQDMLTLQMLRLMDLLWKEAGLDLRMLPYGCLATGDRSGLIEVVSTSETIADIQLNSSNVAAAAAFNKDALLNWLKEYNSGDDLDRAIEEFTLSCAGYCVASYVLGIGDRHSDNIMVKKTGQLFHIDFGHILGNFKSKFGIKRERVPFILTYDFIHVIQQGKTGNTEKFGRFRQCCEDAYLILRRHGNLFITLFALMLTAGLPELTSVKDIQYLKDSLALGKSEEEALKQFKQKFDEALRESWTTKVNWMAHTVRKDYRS

## RQPKIWFPNRRKPWKKTKKSTKTINPSKYQTIRK [Ante-Selectide-18]
  activity of the p110b catalytic subunit, measured via ELISA; Half Maximal Inhibitory Concentration (IC50): 0.105 µM
